# Reference: publication PMC6270235, “A Macrocyclic Peptide that Serves as a Cocrystallization Ligand and Inhibits the Function of a MATE Family Transporter” (Molecules, 2013)
# Bridge positions count the residues as written; N and C are the ends.
# B1: MaL6, chemically synthesized thioether-macrocyclic peptide, not conjugated to mRNA, with an additional C-terminal glycine-carboxamide (peptide)
# peptide: {CH2CO}-FTFRYSPSLYTWFLFPCG-NH2
# modifications: thioether N-17 (inferred)
# notes: AcF = N-chloroacetyl-L-phenylalanine; selected from the LF-library by RaPID; additional C-terminal glycine-carboxamide; also called chemically synthesized MaL6; mRNA-free MaL6; source: synthetic peptide, HPLC purified
# Target: T1, Pyrococcus furiosus multidrug and toxic compound extrusion (PfMATE) transporter, wild type, His6-tagged, … (Pyrococcus furiosus, UniProt Q8U2X0 1-461)
# T1 construct: PfMATE, MATE family transporter of Pyrococcus furiosus, wild type; Held in HEPES-buffered saline with 0.1% Cymal-6; also called His-tagged PfMATE; source: prepared according to literature [29]; not shown: His6, C-terminal, kept
# T1 sequence (looked up): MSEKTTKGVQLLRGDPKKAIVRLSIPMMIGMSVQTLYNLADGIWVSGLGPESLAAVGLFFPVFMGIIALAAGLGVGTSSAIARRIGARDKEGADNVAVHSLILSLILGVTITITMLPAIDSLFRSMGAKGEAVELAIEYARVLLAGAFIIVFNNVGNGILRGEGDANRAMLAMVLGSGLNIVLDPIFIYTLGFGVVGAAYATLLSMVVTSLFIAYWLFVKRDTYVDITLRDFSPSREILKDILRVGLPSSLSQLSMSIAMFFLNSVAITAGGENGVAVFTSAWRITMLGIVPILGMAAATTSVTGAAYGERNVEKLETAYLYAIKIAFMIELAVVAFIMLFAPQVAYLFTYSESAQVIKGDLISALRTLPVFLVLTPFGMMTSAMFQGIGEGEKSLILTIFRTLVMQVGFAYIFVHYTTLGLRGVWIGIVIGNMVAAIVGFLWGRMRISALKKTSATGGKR
# Test: mRNA display selection round with competitor; c-Round 6: 32 µM mRNA-free synthetic MaL6 in the buffer of the binding step, 37 °C, His6-PfMATE on magnetic beads, libraries from Round 5; recovery by real-time PCR
# Details: both partners purified
binder,measurement,value
B1,binding result,binds
